T1: cynomolgus ENTPD2, full length, on cells (cynomolgus macaque, UniProt Q9Y5L3 1-495 (human entry))
T1 chain: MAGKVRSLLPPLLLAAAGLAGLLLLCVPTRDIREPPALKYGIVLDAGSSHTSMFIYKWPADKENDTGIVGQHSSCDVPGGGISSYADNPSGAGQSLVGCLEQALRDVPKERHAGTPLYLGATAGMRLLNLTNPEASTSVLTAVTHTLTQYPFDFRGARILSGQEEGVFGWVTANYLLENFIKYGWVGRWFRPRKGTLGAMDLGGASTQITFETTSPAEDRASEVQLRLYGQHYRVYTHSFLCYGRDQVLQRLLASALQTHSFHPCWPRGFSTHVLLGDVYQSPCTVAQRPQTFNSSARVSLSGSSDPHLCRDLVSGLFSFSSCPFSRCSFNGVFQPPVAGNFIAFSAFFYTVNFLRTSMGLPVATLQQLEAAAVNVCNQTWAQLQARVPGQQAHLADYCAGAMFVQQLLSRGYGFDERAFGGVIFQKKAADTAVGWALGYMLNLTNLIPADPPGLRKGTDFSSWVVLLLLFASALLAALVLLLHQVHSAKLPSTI

T2: human ENTPD2, full length, on cells (human, UniProt Q9Y5L3 1-495)
T2 sequence: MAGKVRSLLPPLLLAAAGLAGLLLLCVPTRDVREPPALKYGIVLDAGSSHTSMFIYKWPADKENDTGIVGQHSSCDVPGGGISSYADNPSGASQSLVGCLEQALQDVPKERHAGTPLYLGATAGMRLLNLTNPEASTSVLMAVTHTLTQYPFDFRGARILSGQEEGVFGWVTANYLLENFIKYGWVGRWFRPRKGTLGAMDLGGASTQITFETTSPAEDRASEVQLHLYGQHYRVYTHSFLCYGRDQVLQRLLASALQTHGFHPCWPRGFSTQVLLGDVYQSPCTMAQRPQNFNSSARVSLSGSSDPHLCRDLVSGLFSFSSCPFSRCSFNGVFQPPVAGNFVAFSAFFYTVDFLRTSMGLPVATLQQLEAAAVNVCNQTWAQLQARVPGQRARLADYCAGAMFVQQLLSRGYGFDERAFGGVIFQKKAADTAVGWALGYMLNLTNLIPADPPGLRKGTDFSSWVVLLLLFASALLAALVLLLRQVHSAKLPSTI

B1: ANTI-HUMAN ENTPD2 MAB2 (antibody, human IgG1, kappa)
heavy: not shown
light: EIVLTQSPATLSASPGERITLSCSASSSVSYIHWYQQKPGQAPRLLIYSTSNLASGIPARFSGSGSGTFYTLTISSVEPEDAAVYYCHQWSSYPWTFGGGTKLEIKRTVAAPSVFIFPPSDEQLKSGTASVVCLLNNFYPREAKVQWKVDNALQSGNSQESVTEQDSKDSTYSLSSTLTLSKADYEKHKVYACEVTHQGLSSPVTKSFNRGEC
B2: ANTI-HUMAN ENTPD2 MAB7 (antibody, human IgG1, kappa)
heavy: not shown
light: EIVLTQSPATLSASPGEEITLSCSASSSVSYIHWYQQKPGQAPRLLIYSTSNLASGIPARFSGSGSGTFYTLTISSVEPEDAAVYYCHQWSSYPWTFGGGTKLEIKRTVAAPSVFIFPPSDEQLKSGTASVVCLLNNFYPREAKVQWKVDNALQSGNSQESVTEQDSKDSTYSLSSTLTLSKADYEKHKVYACEVTHQGLSSPVTKSFNRGEC
B3: ANTI-HUMAN ENTPD2 MAB3 (antibody, human IgG1, kappa, V domains shown)
VH: QVQLVQSGAEVVKPGASVKISCKASGYTFTDYNMDWVKQAPGQRLEWIGDINPKYDISTYNQQFKGKATITVDTSASTAYMELSSLRSEDTAVYYCARRGFFLYYGINYYYFDVWGQGTLVTVSS
VL: EIVLTQSPATLSASPGERITLSCSASSSVSYIHWYQQKPGQAPRLLIYSTSNLASGIPARFSGSGSGTFYTLTISSVEPEDAAVYYCHQWSSYPWTFGGGTKLEIKR
B4: ANTI-HUMAN ENTPD2 MAB12 (antibody, human IgG1, kappa, V domains shown)
VH: EVLLVESGGGLVQPGGSLRLSCAASGFTFNSCSMNWVRQAPGKGLEWVSYISSSSSTIYYADSVKGRFTISRDNAKNSLYLQMNSLKDEDTAVYYCARDQGNWNYDDYYNGLDVWGQGTTVTVSS
VL: not shown
B5: ANTI-HUMAN ENTPD2 MAB11 (antibody, human IgG1, kappa, V domains shown)
VH: EVQLLESGGGLVQSGGSLRLSCAASGFTFSSYAMSWVRQAPGKGLEWVSVISGSGGSTYYADSVKGRFTISRDNSKNTLYLQMNSLRAEDTAVYYCARGDDYGDDYYYYGMDVWGQGTTVTVSS
VL: not shown
B6: ANTI-HUMAN ENTPD2 MAB18 (antibody, human IgG1, kappa, V domains shown)
VH: DIQLQESGPGLVKPSQSLSLTCSVTGYSITSGYYWNWIRQFPGNKLEWMGYISYDGDNNYNPSLKNRISITRDTSKNQFFLKLSSVTTEDTATYYCAGGYYRYGLGSYSGSYYYVMDYWGQGTSVTVSS
VL: DTVLTQSPASLAVSLGQRATISCKASQSVDYDGNSYMNWYQQKPGQPPKLLIYAASNLESGIPARFSGSGSGTDFTLNIHPVEEEDAATYYCQQSNEDPPTFGGGTKLEIKR
B7: ANTI-HUMAN ENTPD2 MAB8 (antibody, human IgG1, lambda, V domains shown)
VH: QVQLQQSGPGLVKPSQTLSLTCAISGDSVSSSSAAWNWIRQSPSRGLEWLGRIYYRSKWYNDYAVSVKSRITINPDTSKNQFSLQLNSVTPEDTAVYYCARGSYVTSSYEGFDYWGQGTLVTVSS
VL: SYELTQPLSVSVALGQTARITCSGDNLPEKYAYWYQQKPGQAPVLVIYDDNKRPSGIPERFSGSNSGNTATLTISRAQAGDEADYYCQSYGKWGWTWVFGGGTKLTVLG
B8: ANTI-HUMAN ENTPD2 MAB9 (antibody, human IgG1, lambda, V domains shown)
VH: QVQLVQSGAEVKKPGSSVKVSCKASGGTFDSYAVSWVRQAPGQGLEWMGRIVPWLGHTQYAQKFQGRVTITADESTSTAYMELSSLRSEDTAVYYCARESPGYRYSFDVWDQGTLVTVSS
VL: SYELTQPLSVSVALGQTARITCSGDAIGEKYVYWYQQKPGQAPVLVIYDDNNRPSGIPERFSGSNSGNTATLTISRAQAGDEADYYCASYDLQQARWVFGGGTKLTVLG
B9: ANTI-HUMAN ENTPD2 MAB10 (antibody, human IgG1, lambda, V domains shown)
VH: QVQLVQSGAEVKKPGSSVKVSCKASGGTFDSYAVSWVRQAPGQGLEWMGRIVPWLGFTRYAQKFQGRVTITADESTSTAYMELSSLRSEDTAVYYCARESPGYRYSFDVWDQGTLVTVSS
VL: SYELTQPLSVSVALGQTARITCSGDAIGEKYVYWYQQKPGQAPVLVIYDDNNRPSGIPERFSGSNSGNTATLTISRAQAGDEADYYCASYDLQQARWVFGGGTKLTVLG
B10: ANTI-HUMAN ENTPD2 MAB19 (antibody, human IgG1, kappa, V domains shown)
VH: EVQLQQFGAELVKPGTSVKISCKASGYTFTDYNMDWVKQSHGKSLEWIGDINPNYDITTYNQRFKGKATLTVDKSSSTAYMELRSLTSEDTAVYYCARRGFFPYYGNSYYYFDVWGAGTTVTVSS
VL: QIVLTQSPTIMSASLGEEITLTCSASSSVSYMHWYQQKSGTSPKLLIYSTSNLASGVPSRFSGSGSGTFYSLTISSVEAEDAADYYCHQWSNYPWTFGGGTKLEIKR
B11: ANTI-HUMAN ENTPD2 MAB20 (antibody, human IgG1, kappa, V domains shown)
VH: EVQLQQFGAELVKPGASVKISCKASGYTFTDYNMDWVKQSHGKSLEWIGDINPNYDITSYNQKFKGKATLTVDKSSSTAYMELRSLTSEDTAVYYCARRGFFLYYGSSYYYFDVWGAGTTVTVSS
VL: QIVLTQSPAIMSASLGEEITLTCSASSSVSYMHWYQQKSGTSPKLLIYSTSNLASGVPSRFSGSGSGTFYSLTISSVEAEDAADYYCHQWSSYPWTFGGGTKLEIKR
B12: ANTI-HUMAN ENTPD2 MAB4 (antibody, human IgG1, kappa, V domains shown)
VH: QIQLQESGPGLVKPSQTLSLTCTVSGYSITSGYYWNWIRQHPGKGLEWIGYISYDADNNYNPSLKNRVTISRDTSKNQFSLKLSSVTAADTAVYYCAGGYYRYGLGSYRGSYYYVMDYWGQGTTVTVSS
VL: ETVLTQSPATLSVSPGERATISCKASQSVDYEGHSYMNWYQQKPGQAPRLLIYAASNLESGIPARFSGSGSGTDFTLTISSVEPEDAATYYCQQSNEDPPTFGGGTKLEIKR
B13: ANTI-HUMAN ENTPD2 MAB6 (antibody, human IgG1, kappa, V domains shown)
VH: QVQLQESGPGLVKPSQTLSLTCTVSGYSITSGYYWNWIRQHPGKGLEWMGYISYDADNNYNPSLKNRITISRDTSKNQFSLKLSSVTAADTAVYYCAGGYYRYGLGSYSGSYYYVMDYWGQGTTVTVSS
VL: DTQMTQSPSSLSVSVGDRATITCKASQSVDYEGHSYMNWYQQKPGKAPKLLIYAASNLESGVPSRFSGSGSGTDFTLTISSVQPEDFATYYCQQSNEDPPTFGGGTKLEIKR
B14: ANTI-HUMAN ENTPD2 MAB5 (antibody, human IgG1, kappa, V domains shown)
VH: QIQLQESGPGLVKPSQTLSLTCTVSGYSITSGYYWNWIRQHPGKGLEWIGYISYDADNNYNPSLKNRVTISRDTSKNQFSLKLSSVTAADTAVYYCAGGYYRYGLGSYRGSYYYVMDYWGQGTTVTVSS
VL: ETVLTQSPATLSVSPGERATISCKASQSVDYDGNSYMNWYQQKPGQAPRLLIYAASNLESGIPARFSGSGSGTDFTLTISSVEPEDAATYYCQQSNEDPPTFGGGTKLEIKR

How the values were obtained:
Assay in all cases: cell-based or functional assay
[1] = biological target: T1, cynomolgus ENTPD2, full length, on cells
[2] = biological target: T2, human ENTPD2, full length, on cells
[3] = biological target: recombinant human ENTPD2 extracellular domain (residues 29-462) with C-terminal Avi-His6 tag (human, UniProt Q9Y5L3 29-462)

Row | Binder | Cyno ENTPD2 NIH/3T3 Assay % inhibition [1] [%] | Cyno ENTPD2 NIH/3T3 Assay IC50 [1] [nM] | Human ENTPD2 NIH/3T3 Assay % inhibition [2] [%] | Human ENTPD2 NIH/3T3 Assay IC50 [2] [nM] | RKO Assay % inhibition [2] [%] | RKO Assay IC50 [2] [nM] | ENTPD2 Biochemical Assay at 1 uM ATP IC50 [3] [nM]
1 | B1 | 84 | 2.7 | 98 | 1.4 | 86 | 0.8 | 
2 | B2 | 82 | 2.7 | 95 | 0.8 | 92 | 0.6 | 
3 | B3 | 84 | 5.8 | 91 | 1.8 | 95 | 1.6 | 
4 | B4 |  |  | 68 | 26.6 |  |  | 
5 | B5 |  |  | 55 | 1.5 |  |  | 
6 | B6 | 68 | 20 | 88 | 0.4 |  |  | 
7 | B7 | 96 | 0.9 | 97 | 0.1 | 95 | 0.2 | 
8 | B8 | 71 | 0.3 | 92 | 0.3 | 70 | 0.1 | 
9 | B9 | 86 | 0.5 | 88 | 0.4 | 77 | 0.2 | 
10 | B10 |  |  |  |  |  |  | 4.09
11 | B11 |  |  |  |  |  |  | 17.5
12 | B12 | 75 | 2.2 | 87 | 0.2 | 74 | 0.2 | 
13 | B13 | 73 | 3.3 | 95 | 0.3 | 90 | 0.2 | 
14 | B14 | 80 | 1.5 | 95 | 0.3 | 80 | 0.2 | 
